# The nanobody polyreactivity screen of Harvey et al. (2022)
# Assay: yeast display, Sf9 membrane polyspecificity reagent, FACS + sequencing; frameworks hold sequencing errors
# Summary of the method: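 Using colony PCR, genes from sorted yeast display clones were amplified, then sequenced on MiSeq at 2 × 250 and filtered by CDR length. The clones had been stained with 10% biotinylated, detergent-solubilized Sf9 membrane reagent for 1 hour at 4 °C and sorted by FACS into low and high (top ~1%) gates on anti-HA and streptavidin fluorescence. Polyreactivity labels come from the gate of origin.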
row,Sequence,polyreactivity (PSR sort gate)
1,QVQLVESGGGLVQAGGSLRLSCAAYGSIFGSNAIGCYIQAPGKERELVAAISSGSTYYADTVKGRFTISRDNAKNTVYLQMNSLKPEDNAVYYCNARSLLYEFDYWGQGTQVTVSS,low polyreactivity
2,QVQLVESGGGLVQAGGSLRLSCAASGRIFAFYAMGWYRQAPGKERQLVAVISKSGGTTYYADSVKGRFTISRDNAKNTVYLQMNSLKPEDTAVYYCNKRVFYRHGYSYNYWGQGTQVTVSS,high polyreactivity
3,QVQLEESGGGLVQAGGSLRLSCAASGSTFDFNAMGWYRQVPGKERELVAAITSGGSTNYADSVKGRFTISRDNAKNTVYLQMNSLKPEDTAVYYCAARPARGDSQGGYVRPWCYDSWGQGTQVTGSS,low polyreactivity
4,QDHLVESGGGLVQAGGSLRLSCAASGRIFFGYAMGWYRQATGKERELVATISYNDTSTYYADSVKGRFTISRDNAKNTVYLQMNCLKPEDTAVNYCSKSLGAPASDVYWGQGTQVTVSS,low polyreactivity
5,QVQLVESGGGLVQAGGILRLSCAASGFTFPWYTMGWYRQAPGKERELVAAISKSGGSTYYADSVKGRFTISRDNAKNTVFLQMNSLKPEDTAVYYCAARGNLYVGGDERFWGQGTQVTVSS,high polyreactivity
6,QIQLVESGGGLVQAGGSLRLSCAASGRIFFRNAMGWYRQAPGKERELVAGITWSGGSTYYADSVKGRFTISRDNAKNTVYLQMNSLKPEDTAVYYCNAVWRYRVLCDYWGQGTQVTVSS,high polyreactivity
7,QVQLVESGGGLVQAGGSLRLSCAASGFTLYAYVMGWYRQAPGKERELVAAISRSGGSTYYADSVKGRFTISRDNAKNTVYLQMNSLKPEDTAVYYCAAQSKYYQYYSWGQGTQVTVSS,high polyreactivity
8,QVQLVESGGGLVQAGGSLRLSCAASGFIFNINTMGWYRQAPGKERELVAAISGSGDSTYYADSVKGRFTISRDNAKNTVYLQMNSLKPEDTAVYYCNAGPWWYLHEYDYWGQGTQVTVSS,low polyreactivity
9,QVQLVESGGGLVQAGGSLRLRCAASGRTFYVYAMGWYRQAPGKERELVATNNTGGSTYYADSVKGRFTISRDNAKNTVYLQMNSLKPEDTAVYYCAARYNPYYIRFGFDKSFYYWGQGTQVTVSS,low polyreactivity
10,QVQLVESGGGLVQAGGSLRLSCAASGSIFFKYAMGWYRQAPGKEREMVAAITWSGGRTYYADSVKGRFTISRDNAKNTVYLQMNSLKPEDTAVYYCNAYSIGVAAADDYWGQGTQVTVSS,high polyreactivity
11,QVELVESCGGLVQAGGSLRLSCAASGSTFTRNGMGWYSLAPGKEREMVAAISSGGSTNYADSVKGRFTISRDNAKNTVDFQKNSLQPEDTAVYYCAVDYRHSSSWNAGPWQMYYWGQGTQVTVSS,low polyreactivity
12,QVQLVQSGGGLVQAGGSLRLSCAATGSTFRIYAIGWYRQAPGKEREFVAAISDRGGRTYYADSVKGRFTISRDNAKNTVYLQMNSLKPEDTAVYYCAAVKLLSSAPGDDGQMNYWGQGTQVTVSS,low polyreactivity
13,QVQLQESGGGLVQAGGSLCLSCAASGTIFFDGDMGWYRQAPGKEREFVAAINPGGSAYYADSVKGRLPLAAITHSVYLQMNSLKPEDTAVYYCAAKLFDVYGYYYWGQGTHVTVSS,low polyreactivity
14,QVQLVESGGGLVQAGGSLRLSCAASGFTFLYNAMGWYRQAPGKERELVASINSGGSTNYADSVKGRFTISRDNAKNTVYLQMNSLKPEDTAVYYCAADKGPLQRGFDYWGQGTQVTVSS,low polyreactivity
15,QVQLVESGGGLVQAGGSLRLSCAASGRTFYIYTMGWYRQAPGKERELVAAISSSGDSTYYADSVKGRFTISRDNAKNTVFLQMNPLKPEDTAVYYCAAYPTYPDEYWGQGTQVTVSS,low polyreactivity
16,QVQLVESGGGLVQAGGSLRLSCAASGSTVYYNAMGWYRQAPGKERELVADITTSGDSTYYADSVKGRFTISRDNAKNTVYFQMNSLKPEDTAVYYCNAGVVGDYPYWGLMDYWGQGTQVTVSS,high polyreactivity
17,QVQLVESGGGLVQAGGSLRLSCAASGNTFHPYAMGWYRQAPGKERELVAAITKSGGSTYYADSVKGRFTISRDNAKNTVYLQMNSLKPEDTAFYYCAAESYIEYYLKYDYWGQGSQVTVSS,low polyreactivity
18,QVQLVESGGGLVQAGGSLRLSCAASGIIFSDNAMGWYRQAPGKERELVAAIDWSGGSTYYADSVKGRFTISRDNAKNTVYLQMNSLKPEDTAVYYSAAEYRDYVPVNDTGDYWGQGTQVTVSS,low polyreactivity
19,QVQLVESGGCLVQAGGSLRLSCAASGSIFYSYAMGWYRQAPGKEMELVADISSDGSTNYADSVKGRFTISRDNAKNTVYLQMNSLKPEDTAVYYCAKKPSSARYVTIGFDYWGQGTQVTVSS,low polyreactivity
20,QVQLVESGGGLVQAGGSLRLSCAASGFILGYYVMGWYRQAPGKERELVAAISSGGRTYYADSVKGRFTISRDNAKNTVYLQMNSLKPEDTAVYYCNAYAPRRRFDYWGQGTQVTVSS,high polyreactivity
21,QVQLVETGGGLVQAGGSLRLSCAASGSTFVRYTMGWYRQAPGKERELVAAISQRDSRTYYADSVKGRFTISRDNAKNTVYLQMNSLKPEDTAVYYCAARSWWYRSATYNYWGQGTQVTVSS,high polyreactivity
22,QVQLVESGGGLVQAGGSLRLSCAASGLTYAKYVMRWYRQAPGNERELVAAISRSGGSTFYADSVKGRFTISRDNAKNTVYLQMNSLKPEDTAVYYCAAAAWDPKGSRYDYWGQGTQVTVSS,low polyreactivity

row,Sequence,polyreactivity (PSR sort gate)
1,QVQHVESGGGLVQAGGSLRLSCAASGSTFWNKAMGWYRQAPGKEREFVAAITRSTTSTYYADSVKGRFTISRDNAKNTVYLQMNSLKPEDTAVYFCAADTDIVLYDYWGQGTQVTVSS,low polyreactivity
2,QVQLVESGVGLVQAGGSLLLICAASGRIFGANAMGLYRQAPGKERELVAAISRTGGSTNYADSVKGRFTISRDNAINTVFLQMYSLKPEDTAVYYCNAVYRYAHPMEYWGQGTQVTVSS,high polyreactivity
3,QVQLVESGGGLFQAGGSLRLSCAASGRIFVFYAMGWYRQAPGKEMELVAAISKSVGPTYYADSVKGRFTISRDYAKNTVYLQMNSLKPEDTAVYYCNKRSASDLWPQYGYWGQGTQVTVSS,low polyreactivity
4,QVQLVESGGGLVQAGGSLRLSCAASGFTFVYYAMGWSRQAPGKERELVAAISRSGATTYYADSVKGRFTISRDNAKNTVYLQMNSLKPEDTAVYYCAAVYRHPRENWPDTRYGYWGQGTQVTVSS,high polyreactivity
5,QVQLVESGGGLVQAGGSLRLSCAASGSIFYRYARGWYRQAPGKERELVAAISYNGGRTYYADSVKGRFTISRDNAKNTVYLQMNSLKPEDTAVYYCNAAGRDDAYDYWGQGTQVTVSS,high polyreactivity
6,QVQLVESGGGLVQAGGSLRLSCAASGSNFGIYAMGWYRQAPGKERELVAAISSRGSTYYADSVKGRFTISRDNAKNTVYLQMNSLKPEDTAVYYCAAGYAWYNYWGQGTQVTVSS,high polyreactivity
7,QVQLVESGGGLVQAGGSLRLSCAAYGRTLRGYAMGWYRQAPGKERELVAALTWSGGSTYYADSVKGRFTISRDHAKNTVYLQMNSLKPEDTAVYYCNARSYPDLYDYWGQGTQVTVSS,low polyreactivity
8,QVQLVESGGGLVQAGGSLRISCAASGRIFAQYVMGWYRQAPGKERELVAAISSGGSTYYADSVKGRFTISRDNAKNTVYLQMNSLKPEDTAVYYCAARSRAHRVGRQPFDYWGQGTQVTVSS,high polyreactivity
9,QLQLVESGGGLVQAGGSLRLSCAASGRTFSYNTMGWYRHAPGKERELVAAISWSGGSTYYADSVKGRFTISRDNAKNTVYLQMNSLKPEDSAVYYCNARSSGKGRSNAYYKGHGYWGQGTQVTVSS,high polyreactivity
10,QVQLVESGGGLVQAGGSLRLSCAASGLTFFGNAMGWYRQAPGKERELVATISSGGGTSYADSVKGRFTISRDNAKNTVYLQMNSLKPEDTAVYYCAADIVEEFDYWGQGTQVTVSS,low polyreactivity
11,QVQLVESGGGLVQAGGSLRLSCAASGSIFRGNAMGWYRQAPGKERELVAAITYNDGGTYYADSVKGRFTISRDNAKNTVYLQMNSLKPEDTAVYYCAAVGTGNKSILYDYWGQGTQVTVSS,low polyreactivity
12,QVQLVESGGGLVQAGGSLRLSCAASGSIFYWNAMGWYRQAPGKERELVAAISYNGGSTYYADSVKGRFTISRDNAKNTVYLQMNSLKPEDTAVYYCARLDSAAEPRQYDYWGQGTQVTVSS,high polyreactivity
13,QVQLVESGGGLVQAGGSLRLSCAASGIIFGTYAMGWYRQAPGKERELVAAINWSGGSTYYADSVKGRFTISRDNAKNTVYLQMNSLKPEDTAVYYCAADGNEYDYWGQGTQVTVSS,low polyreactivity
14,QVQLVESGGGLVQAGGSLRLSCAASGRIFWSYDMGWYRQAPGKERELVASITSDGSTNYADSVKGRFTISRDNAKNTVYLQMNSLKPEDTAVYYCAARPYQYDPFAQGDGGKYDYWGQGTQVTVSS,low polyreactivity
15,QVQLVESGGGLVQEGGSLRLSCAASGLIFSYYAMGWYRQAPGKERELVAAISWSGASTFYADSVKGRFTISRDNAKNTVYLQMNSLKPEDTAVYYCAADTYGKTYYYWGQGTLVTVSS,low polyreactivity
16,QVQLVESGGGLVQAGGSLRLSCAASGSIFITYAMGWYRQAPGKERELVAAIRDSGDRTYYADSVKGRFTISRDNAKKTVYLQMNSLKPEDTAVYYCNARWQEPLKYDYWGQGTQVTVSS,low polyreactivity
17,QVQLVESGGGLVQAGGSLRLSSAASGRTFQRNVMGWYRQAPGKDRELVAAISSSGGGTYYADSVKGRFTISRDNAKNTVYLQMNSLKPEDTAVYYCAARYRSYGGYGYYYWGLGTQVTVSS,high polyreactivity
18,QGQLVESGGALVQAGGSLRLSCAPSGRTFHGYAMGGYRQAPGKERELVARINWSDGRTYYADSVKGRFTISRDNAKNTVYLQMNSLKPEDTAVYYCAADKTVSYGPAWYYYWGQGTQVTVSS,low polyreactivity
19,QVQLVESGGGLVQAGGSLRLSCAASGSIFSFYTMGWYRQAPGKERELVASSTTYADSVKGRFTISRDNAKNTVYLQMNSLKPEDTAVYYCAAEYYSSITGWYYYWGQGTQVTVSS,low polyreactivity
20,QVQLVESGGGLVEAGGRLSLSCAASGSIFHRNAMGGFRQAPGTERELVAAITYSGGGTYYADSVKGRFTISRDNAKNTVYLQMNSLKPEDTAVYYCAADYKSKYSRYIYDYWGQGPQVTVSS,low polyreactivity
21,QVQLVESGGGLVQAGGSLRLSCAASGITLAYNAMGLYRQAPGTEREFVAAIDVCGGRTYYADSVKGRFTISRDNAKNTVYLQMNSLKPEDTAVYYCAAADIIDHSFPYDYWGQGTQVTVSS,low polyreactivity
